Laboratory results as given in patent US20050277167A1 (published 2005).

Target: T1, chicken prolyl 3-hydroxylase 1 (chicken P3H1) (chicken, UniProt Q6JHU8 15-725)
T1 construct: Native protein from chick embryos (gelatin sepharose, then 1C10 antibody column); also called chick homologue of leprecan; 90 kDa protein
T1 sequence: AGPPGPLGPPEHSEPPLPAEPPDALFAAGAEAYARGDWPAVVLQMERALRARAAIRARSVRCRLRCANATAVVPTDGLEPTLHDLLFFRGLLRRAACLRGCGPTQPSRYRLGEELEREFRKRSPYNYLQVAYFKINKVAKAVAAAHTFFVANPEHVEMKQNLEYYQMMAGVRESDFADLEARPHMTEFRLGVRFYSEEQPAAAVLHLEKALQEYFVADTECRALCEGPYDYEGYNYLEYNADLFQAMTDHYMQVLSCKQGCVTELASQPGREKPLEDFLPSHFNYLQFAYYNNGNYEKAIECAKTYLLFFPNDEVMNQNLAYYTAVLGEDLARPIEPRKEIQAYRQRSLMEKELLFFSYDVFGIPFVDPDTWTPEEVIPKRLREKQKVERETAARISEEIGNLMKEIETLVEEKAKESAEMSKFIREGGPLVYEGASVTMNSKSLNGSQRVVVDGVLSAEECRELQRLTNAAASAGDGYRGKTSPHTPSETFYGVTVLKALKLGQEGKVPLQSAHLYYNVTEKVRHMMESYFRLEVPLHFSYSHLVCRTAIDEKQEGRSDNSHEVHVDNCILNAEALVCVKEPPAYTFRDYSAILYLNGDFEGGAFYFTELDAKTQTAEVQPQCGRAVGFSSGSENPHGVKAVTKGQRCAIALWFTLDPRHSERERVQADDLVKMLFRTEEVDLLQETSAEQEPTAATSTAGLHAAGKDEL
Experiment: co-retention on 1C10 (anti-P3H1) column, elution at pH 6 and 0.5 M NaCl, SDS-PAGE and sequencing
Method: The antibody was produced and selected by standard methods and specificity of the antibody was determined using immunoblotting and ELISA techniques. The antibody recognizes both nonreduced and reduced (at much lower affinity) P3H1 and was used to create an affinity column for the purpose of protein purification. Briefly, a 2 ml column was created using approximately 10 mg of the 1C10 antibody and AminoLink® plus coupling gel (Pierce) following the manufacturer's instructions. Pooled and dialyzed peak fractions from the gelatin sepharose elution were then loaded onto the antibody column and the flow through was collected and concentrated for further purification of prolyl 4-hydroxylase and PDI by sieve chromatography on superose 12 resin (Pharmacia). The 1C10 antibody column was washed with 5 volumes of PBS (procedure described in Current Protocols in Protein Science Online), and then washed with 5 volumes of wash B buffer containing 50 mM sodium phosphate, pH 6.0, 0.5 M NaCl, and 0.1% Triton X-100 to elute associated proteins. […] Sequences of proteins eluted with the wash B buffer were determined by Edman degradation in a protein sequencer (Applied Biosystems Procise Sequencer). […]

B1: cyclophilin B (CYPB) (enzyme)
chain: not shown
notes: Native protein from chick embryos, 21 kDa on SDS-PAGE; also called 21 kDa protein
Question: Does B1 bind?
Answer: binds
